Reference: US20140356418A1

Tests used:
[1] = molecular target: Aβ42 fibrils (immobilized Aβ(1-42) fibrils) (UniProt P05067); test: SPR, Aβ fibrils (summary of the Examples)
[2] = molecular target: Aβ42 fibrils (immobilized Aβ(1-42) fibrils) (UniProt P05067); test: SPR (Sensi Q), immobilized Aβ(1-42) fibrils, fit of a single curve; (the concentration, 1 or 3 µM, is not given)
[3] = molecular target: Aβ42 fibrils (immobilized Aβ(1-42) fibrils) (UniProt P05067); test: SPR (Sensi Q), immobilized Aβ(1-42) fibrils, fit of a single curve; inset table row 2 (the row's concentration, 1 or 3 µM, is not given)
[4] = molecular target: Aβ42 fibrils (immobilized Aβ(1-42) fibrils) (UniProt P05067); test: SPR, Aβ42 fibrils immobilized, Langmuir 1:1 fit
[5] = molecular target: Aβ42 fibrils (immobilized Aβ(1-42) fibrils) (UniProt P05067); test: SPR, Aβ42 fibrils immobilized, Langmuir 1:1 fit, curves fitted separately; lower end of the range from curves fitted separately (1, 3, 6 µM RI-OR2-TAT)
[6] = molecular target: Aβ42 fibrils (immobilized Aβ(1-42) fibrils) (UniProt P05067); test: SPR, Aβ42 fibrils immobilized, Langmuir 1:1 fit, curves fitted separately; upper end of the range from curves fitted separately (1, 3, 6 µM RI-OR2-TAT)

Aβ42 fibrils (immobilized Aβ(1-42) fibrils), sequence (P05067 672-713 limits assumed): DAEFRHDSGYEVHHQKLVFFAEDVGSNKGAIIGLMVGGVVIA

Row | Substance | Kd [1] [nM] | Kd [2] [nM] | koff [2] [s⁻¹] | kon [2] [M⁻¹ s⁻¹] | Kd [3] [nM] | koff [3] [s⁻¹] | kon [3] [M⁻¹ s⁻¹] | koff [4] [s⁻¹] | kon [4] [M⁻¹ s⁻¹] | Kd [5] [nM] | Kd [6] [nM]
1 | PINPs (Peptide Inhibitor NanoParticles): RI-OR2-TAT covalently attached to nanoliposomes | 14 to 44 | 14.8 | 6.71e-05 | 4520 | 44.7 | 5.31e-05 | 1190 |  |  |  | 
2 | RI-OR2-TAT (Ac-rGffvlkGrrrrqrrkkrGy-NH2) (peptide) | 41 to 75 | 75.6 | 0.00096 | 12700 | 41.5 | 0.000994 | 23900 | 0.00037 | 3680 | 58 to 125 | 58 to 125
